# From article doi:10.1101/2024.03.21.586141, “Delving into human α1,4-galactosyltransferase acceptor specificity: the role of enzyme dimerization” (bioRxiv, 2024)
# T1: human β1,4-galactosyltransferase 5 isoenzyme (B4galt5) (human, UniProt O43286 1-388)
# T1 construct: human β1,4-galactosyltransferase 5, ORF of GenBank NM_004776.4 nucleotides 189-1355 (388 codons and stop); Synthetic ORF (Thermo Fisher) recloned into pBiT1.1-N/C and pBiT2.1-N/C; also called N-Lg-B4galt5; C-Lg-B4galt5; source: HEK293T or CHO-Lec2 cells, transfected (PEI), in live cells; not shown: LgBiT or SmBiT (NanoLuc subunit), N-terminal or C-terminal, kept
# T1 sequence (looked up): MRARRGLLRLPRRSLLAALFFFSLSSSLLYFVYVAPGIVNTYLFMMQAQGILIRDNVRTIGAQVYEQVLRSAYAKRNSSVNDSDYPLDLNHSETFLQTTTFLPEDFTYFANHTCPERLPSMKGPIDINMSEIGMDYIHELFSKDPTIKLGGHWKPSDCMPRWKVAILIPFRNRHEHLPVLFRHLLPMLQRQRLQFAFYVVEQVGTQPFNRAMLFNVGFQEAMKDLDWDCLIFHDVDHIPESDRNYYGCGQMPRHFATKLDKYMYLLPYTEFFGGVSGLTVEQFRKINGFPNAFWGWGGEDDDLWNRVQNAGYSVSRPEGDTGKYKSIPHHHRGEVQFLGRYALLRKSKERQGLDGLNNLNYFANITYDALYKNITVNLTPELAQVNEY
# T2: human β1,4-galactosyltransferase 1 (B4galt1) (human, UniProt P15291-2 1-385)
# T2 construct: human β1,4-galactosyltransferase 1, ORF of GenBank NM_001378495.1 nucleotides 30-1187 (1158 nt: 385 codons and stop); Synthetic ORF (Thermo Fisher) recloned into pBiT1.1-N/C and pBiT2.1-N/C; also called N-Lg-B4galt1; C-Lg-B4galt1; source: HEK293T or CHO-Lec2 cells, transfected (PEI), in live cells; not shown: LgBiT or SmBiT (NanoLuc subunit), N-terminal or C-terminal, kept
# T2 sequence (looked up): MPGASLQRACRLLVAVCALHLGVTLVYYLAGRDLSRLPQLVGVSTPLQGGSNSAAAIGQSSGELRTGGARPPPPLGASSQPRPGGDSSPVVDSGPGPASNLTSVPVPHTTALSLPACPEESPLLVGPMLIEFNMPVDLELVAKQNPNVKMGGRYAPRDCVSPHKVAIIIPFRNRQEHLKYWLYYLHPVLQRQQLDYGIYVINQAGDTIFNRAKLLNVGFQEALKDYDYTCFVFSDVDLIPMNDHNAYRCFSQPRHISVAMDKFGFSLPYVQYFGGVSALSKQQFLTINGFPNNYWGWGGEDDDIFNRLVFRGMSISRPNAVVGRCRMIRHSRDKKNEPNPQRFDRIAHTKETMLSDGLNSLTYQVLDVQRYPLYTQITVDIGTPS
# Key:
# Details in all cases: partners not purified
# [1] = biological target: T1, human β1,4-galactosyltransferase 5 …; test: split reporter (BiFC, NanoBiT); NanoBiT in live CHO-Lec2 cells, co-transfected with LgBiT and SmBiT fusions (N- or C-terminal, 25 ng of each plasmid a well), Nano-Glo Live Cell Substrate in Opti-MEM; fold of luminescence over LgBiT fusion with HaloTag-SmBiT, threshold 10-fold
# [2] = biological target: T2, human β1,4-galactosyltransferase 1 …; test: as above
# [3] = biological target: T2, human β1,4-galactosyltransferase 1 …; test: split reporter (BiFC, NanoBiT); NanoBiT in live HEK293T cells, co-transfected with LgBiT and SmBiT fusions (N- or C-terminal, 25 ng of each plasmid a well), Nano-Glo Live Cell Substrate in Opti-MEM; fold of luminescence over LgBiT fusion with HaloTag-SmBiT, threshold 10-fold
binder,measurement,setting,value
"human α1,4-galactosyltransferase (A4galt), high-frequency enzyme (p.Q211) (enzyme, UniProt Q9NPC4 1-353, looked up, human α1,4-galactosyltransferase, high-frequency variant with Q at position 211; full-length A4GALT gene from pCAG-A4GALT, GenBank NM_001318038.3 nucleotides 325-1386 (353 codons and stop); Four fusions were made (LgBiT or SmBiT at the N- or C-terminus, vectors pBiT1.1-N/C and pBiT2.1-N/C); every protein stood as LgBiT and as SmBiT fusion; also called Gb3/CD77 synthase; P1/Pk synthase; source: …) MSKPPDLLLRLLRGAPRQRVCTLFIIGFKFTFFVSIMIYWHVVGEPKEKGQLYNLPAEIPCPTLTPPTPPSHGPTPGNIFFLETSDRTNPNFLFMCSVESAARTHPESHVLVLMKGLPGGNASLPRHLGISLLSCFPNVQMLPLDLRELFRDTPLADWYAAVQGRWEPYLLPVLSDASRIALMWKFGGIYLDTDFIVLKNLRNLTNVLGTQSRYVLNGAFLAFERRHEFMALCMRDFVDHYNGWIWGHQGPQLLTRVFKKWCSIRSLAESRACRGVTTLPPEAFYPIPWQDWKKYFEDINPEELPRLLSATYAVHVWNKKSQGTRFEATSRALLAQLHARYCPTTHEAMKMYL",fold of luminescence over the negative control,[1],300 times
same,fold of luminescence over the negative control,[2],90 times
same,fold of luminescence over the negative control,[3],~60 times
"human α1,4-galactosyltransferase (A4galt), mutein with p.Q211E substitution (enzyme, UniProt Q9NPC4 1-353, looked up, human α1,4-galactosyltransferase, rare natural variant p.Q211E (c.631C>G, rs397514502); full-length A4GALT gene from pCAG-A4GALT, GenBank NM_001318038.3 nucleotides 325-1386; Four fusions were made (LgBiT or SmBiT at the N- or C-terminus); also called mutein human A4galt; rare enzyme variant; source: HEK293T or CHO-Lec2 cells, transfected (PEI), in live cells; not shown: LgBiT or SmBiT (NanoLuc …)) MSKPPDLLLRLLRGAPRQRVCTLFIIGFKFTFFVSIMIYWHVVGEPKEKGQLYNLPAEIPCPTLTPPTPPSHGPTPGNIFFLETSDRTNPNFLFMCSVESAARTHPESHVLVLMKGLPGGNASLPRHLGISLLSCFPNVQMLPLDLRELFRDTPLADWYAAVQGRWEPYLLPVLSDASRIALMWKFGGIYLDTDFIVLKNLRNLTNVLGTESRYVLNGAFLAFERRHEFMALCMRDFVDHYNGWIWGHQGPQLLTRVFKKWCSIRSLAESRACRGVTTLPPEAFYPIPWQDWKKYFEDINPEELPRLLSATYAVHVWNKKSQGTRFEATSRALLAQLHARYCPTTHEAMKMYL",fold of luminescence over the negative control,[1],~1000 times
same,fold of luminescence over the negative control,[2],360 times
same,fold of luminescence over the negative control,[3],~30 times
